Measurements taken from the supplement of paper PMC7877785.
± gives the uncertainty stated by the source.

Assay: self-splicing fitness, log relative to wild type (ln ratio); higher = more splicing; Tetrahymena group I intron in knt gene, E. coli kanamycin selection, DiMSum; sequences stand for … in CUCUCU…GGAGGGAAAAGUUAUCAGGCAUGCACCUGGUAGCUAGUCUUUAAACCAAUAGAUUGCAUCGGUUUAAAAGGCAAGACCGUCAAAUUGCGGGAAAGGGGUCAACAGCCGUUCAGUACCAAGUCUCAGGGGAAACUUUGAGAUGGCCUUGCAAAGGGUAUGGUAAUAAGCUGACGGACAUGGUCCUAACCACGCAGCCAAGUCCUAAGUCAACAGAUCUUCUGUUGAUAUGGAUGCAGUUCACAGACUAAAUGUCGGUCGGGGAAGAUGUAUUCUUCUCAUAAGAUAUAGUCGGACCUCUCCUUAAUGGGAGCUAGCGGAUGAAGUGAUGCAACACUGGAGCCGCUGGGAACUAAUUUGUAUGCGAAAGUAUAUUGAUUAGUUUUGGAGUACUCGUGGUCG
Method in brief: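 The eight P1ex-region nucleotides of an intron in the knt kanamycin-resistance gene on pET-22b(+) were all randomised and the library put into E. coli BL21(DE3). Six replicate transformations were grown overnight at 37°C or 30°C on LB agar with or without 25 μg/mL kanamycin, together with 100 μg/mL carbenicillin, 50 μM IPTG and 0.2% rhamnose. Colonies were pooled and amplicon-sequenced on an Illumina HiSeq 2500. Fitness from DiMSum is the error-weighted combination of wild-type-normalised replicate fold changes, kanamycin over none.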

Sequence	self-splicing fitness (ln) (30 °C)	self-splicing fitness (ln) (37 °C)
GUGCAGCAAUAUUACGUCUC	-0.469 ± 0.084	0.48 ± 0.11
GUGCAGCAAUAUUACGUGAC	-1.86 ± 0.14	-1.33 ± 0.14
GUGCAGCAAUAUUACGUGCU	-3.49 ± 0.32	-2.35 ± 0.35
GUGCAGCAAUAUUACGUGGC	-3.55 ± 0.27	-1.8 ± 0.15
GUGCAGCAAUAUUACGUUGU	-3.71 ± 0.17	-2.56 ± 0.17
GUGCAGCAAUAUUACGUUUA	-0.737 ± 0.11	-0.75 ± 0.12
GUGGAGCAAUAUUACGAACA	-2.19 ± 0.46	-0.866 ± 0.45
GUGGAGCAAUAUUACGAACG	-2.43 ± 0.43	-1.53 ± 0.41
GUGGAGCAAUAUUACGAAUC	-3.4 ± 0.24	-1.43 ± 0.26
GUGGAGCAAUAUUACGACUU	-2.79 ± 0.34	-0.283 ± 0.24
GUGGAGCAAUAUUACGAGCA	-2.49 ± 0.34	-1.93 ± 0.39
GUGGAGCAAUAUUACGAGUG		-1.74 ± 0.36
GUGGAGCAAUAUUACGAUCC	-2.49 ± 0.2	-1.13 ± 0.28
GUGGAGCAAUAUUACGCCCU	-1.79 ± 0.32	-1.87 ± 0.26
GUGGAGCAAUAUUACGCCUU	-2.3 ± 0.31	-1.09 ± 0.22
GUGGAGCAAUAUUACGCGAA	-3 ± 0.39	-1.09 ± 0.27
GUGGAGCAAUAUUACGCUAA	-2.72 ± 0.25	-1.6 ± 0.19
GUGGAGCAAUAUUACGCUAG	-3.24 ± 0.19	-2.36 ± 0.2
GUGGAGCAAUAUUACGCUCA	-1.19 ± 0.26	-1.1 ± 0.26
GUGGAGCAAUAUUACGGAGC	-2.43 ± 0.2	-0.177 ± 0.25
GUGGAGCAAUAUUACGGCAC	-1.39 ± 0.19	-0.386 ± 0.31
GUGGAGCAAUAUUACGGUGA		-1.81 ± 0.49
GUGGAGCAAUAUUACGUAAG	-3.04 ± 0.26	-1.21 ± 0.47
GUGGAGCAAUAUUACGUAGC	0.305 ± 0.33	
GUGGAGCAAUAUUACGUAGU	-2.93 ± 0.24	-0.993 ± 0.27

Sequence	self-splicing fitness (ln) (30 °C)	self-splicing fitness (ln) (37 °C)
GUGGAGCAAUAUUACGUCAC	-3.5 ± 0.39	-1.99 ± 0.26
GUGGAGCAAUAUUACGUCCG	-3.12 ± 0.33	-1.01 ± 0.33
GUGGAGCAAUAUUACGUCGG	-3.08 ± 0.22	-2.35 ± 0.2
GUGGAGCAAUAUUACGUGAC		1.74 ± 0.35
GUGGAGCAAUAUUACGUGGU	-2.9 ± 0.27	-2.51 ± 0.28
GUGGAGCAAUAUUACGUUCA	-1.02 ± 0.11	-0.668 ± 0.11
GUGUAGCAAUAUUACGAAGA		-1.38 ± 0.39
GUGUAGCAAUAUUACGAAGU	-2.86 ± 0.34	-1.67 ± 0.25
GUGUAGCAAUAUUACGACUA	-0.34 ± 0.11	0.0605 ± 0.12
GUGUAGCAAUAUUACGAGAC	-3.58 ± 0.42	-2.4 ± 0.16
GUGUAGCAAUAUUACGAGGU	-2.33 ± 0.44	-1.61 ± 0.49
GUGUAGCAAUAUUACGAUCG	-1.94 ± 0.22	0.634 ± 0.17
GUGUAGCAAUAUUACGAUUU	-1.98 ± 0.19	0.0419 ± 0.25
GUGUAGCAAUAUUACGCAGG		-2.3 ± 0.32
GUGUAGCAAUAUUACGCCAU	-3.15 ± 0.29	-1.51 ± 0.22
GUGUAGCAAUAUUACGCCUG	-3.94 ± 0.25	-0.863 ± 0.13
GUGUAGCAAUAUUACGCCUU	-2.63 ± 0.39	-2.56 ± 0.37
GUGUAGCAAUAUUACGCGAU	-3.21 ± 0.26	-1.96 ± 0.26
GUGUAGCAAUAUUACGCGCU		-1.27 ± 0.18
GUGUAGCAAUAUUACGCGGU	-2.85 ± 0.34	-0.66 ± 0.41
GUGUAGCAAUAUUACGCUCA	-0.291 ± 0.21	0.47 ± 0.33
GUGUAGCAAUAUUACGCUGU	-2.96 ± 0.2	-3.45 ± 0.39
GUGUAGCAAUAUUACGCUUA	-1.45 ± 0.29	0.408 ± 0.25
GUGUAGCAAUAUUACGGGAG	-3.55 ± 0.2	-2.88 ± 0.18
GUGUAGCAAUAUUACGGGGA	-1.9 ± 0.28	-2.41 ± 0.25

Sequence	self-splicing fitness (ln) (30 °C)	self-splicing fitness (ln) (37 °C)
GUGUAGCAAUAUUACGGGUG	-2.72 ± 0.14	-1.13 ± 0.13
GUGUAGCAAUAUUACGGUAC	-2.1 ± 0.22	-1.43 ± 0.25
GUGUAGCAAUAUUACGGUUC	-1.04 ± 0.13	-0.373 ± 0.16
GUGUAGCAAUAUUACGUAUG	-3.21 ± 0.23	-2.78 ± 0.27
GUGUAGCAAUAUUACGUCGC	-2.48 ± 0.26	
GUGUAGCAAUAUUACGUCUU	0.202 ± 0.18	-0.00398 ± 0.18
GUGUAGCAAUAUUACGUUUA	-2.51 ± 0.23	-2.01 ± 0.15
GUUAAGCAAUAUUACGAAAA	-1.13 ± 0.27	-2.1 ± 0.24
GUUAAGCAAUAUUACGAGGU		-2.51 ± 0.34
GUUAAGCAAUAUUACGAGUG	-2.69 ± 0.14	-1.84 ± 0.16
GUUAAGCAAUAUUACGAUGG		-1.77 ± 0.23
GUUAAGCAAUAUUACGCAGU	-1.74 ± 0.24	-2.55 ± 0.23
GUUAAGCAAUAUUACGCCAG	-3.1 ± 0.23	-2.75 ± 0.28
GUUAAGCAAUAUUACGCCUA	-0.752 ± 0.11	-0.139 ± 0.11
GUUAAGCAAUAUUACGCGGU	-3.3 ± 0.22	-2.65 ± 0.2
GUUAAGCAAUAUUACGCGUG	-0.781 ± 0.1	-0.78 ± 0.099
GUUAAGCAAUAUUACGCUAA	-2.35 ± 0.14	-1.54 ± 0.15
GUUAAGCAAUAUUACGGCAA	0.045 ± 0.2	-0.394 ± 0.22
GUUAAGCAAUAUUACGGCUC	0.46 ± 0.2	-0.6 ± 0.21
GUUAAGCAAUAUUACGGGAG	-3.17 ± 0.14	-1.63 ± 0.097
GUUAAGCAAUAUUACGGUUU	-0.85 ± 0.094	-1.5 ± 0.12
GUUAAGCAAUAUUACGUAGC	-2.84 ± 0.19	-1.86 ± 0.26
GUUAAGCAAUAUUACGUAGU	-2.06 ± 0.16	-0.895 ± 0.14
GUUAAGCAAUAUUACGUCAU	-1.5 ± 0.1	-0.179 ± 0.12
GUUAAGCAAUAUUACGUGUA	-2.09 ± 0.098	-0.751 ± 0.091

Sequence	self-splicing fitness (ln) (30 °C)	self-splicing fitness (ln) (37 °C)
GUUAAGCAAUAUUACGUUAG	-2.47 ± 0.13	-1.32 ± 0.14
GUUCAGCAAUAUUACGAAAC	-1.48 ± 0.23	-0.734 ± 0.22
GUUCAGCAAUAUUACGAAGA	-0.456 ± 0.086	0.147 ± 0.1
GUUCAGCAAUAUUACGAAGG	-1.55 ± 0.2	-0.421 ± 0.23
GUUCAGCAAUAUUACGAGCG	-2.03 ± 0.13	-1.31 ± 0.15
GUUCAGCAAUAUUACGAGCU	-3.34 ± 0.32	-3.72 ± 0.39
GUUCAGCAAUAUUACGAGGA	-3.54 ± 0.27	-2.18 ± 0.26
GUUCAGCAAUAUUACGAUCC	-1.37 ± 0.12	-1.05 ± 0.14
GUUCAGCAAUAUUACGCAAG	-0.984 ± 0.093	-0.654 ± 0.12
GUUCAGCAAUAUUACGCAUU	-0.22 ± 0.06	0.414 ± 0.078
GUUCAGCAAUAUUACGCGGC		-2.94 ± 0.43
GUUCAGCAAUAUUACGGACC		-2.8 ± 0.38
GUUCAGCAAUAUUACGGUCG	-0.812 ± 0.099	-0.788 ± 0.15
GUUCAGCAAUAUUACGUAUC	-0.532 ± 0.089	-0.756 ± 0.1
GUUCAGCAAUAUUACGUCCG	0.0188 ± 0.43	
GUUCAGCAAUAUUACGUCGA	-0.842 ± 0.15	-0.398 ± 0.13
GUUCAGCAAUAUUACGUGAU	-0.367 ± 0.049	0.43 ± 0.068
GUUCAGCAAUAUUACGUGGC	-2.08 ± 0.1	-2.25 ± 0.16
GUUCAGCAAUAUUACGUGUU	-1.84 ± 0.08	0.0147 ± 0.089
GUUGAGCAAUAUUACGAACU		-1.61 ± 0.27
GUUGAGCAAUAUUACGACCC		-0.607 ± 0.49
GUUGAGCAAUAUUACGACGG	-3.52 ± 0.3	-1.12 ± 0.28
GUUGAGCAAUAUUACGAGUC	-3.09 ± 0.28	-0.0995 ± 0.16
GUUGAGCAAUAUUACGAGUG	-2.98 ± 0.19	-3.28 ± 0.28
GUUGAGCAAUAUUACGAUUC	-0.993 ± 0.12	0.00124 ± 0.2
